Consider two molecules from publication PMC5549770, “Human cytomegalovirus IE1 downregulates Hes1 in neural progenitor cells as a potential E3 ubiquitin ligase” (PLoS Pathogens, 2017).

In assay [1] the target is T1, His-IE1 (pET-IE1) (human cytomegalovirus (Towne strain), UniProt P03169 1-491).
T1 construct: HCMV IE1 (UL123), wild type, cloned into pET28a; 491 amino acids (Towne); also called purified IE1; source: E. coli BL21, purified (cOmplete His-Tag Purification Resin); not shown: His6, N-terminal, kept
T1 sequence: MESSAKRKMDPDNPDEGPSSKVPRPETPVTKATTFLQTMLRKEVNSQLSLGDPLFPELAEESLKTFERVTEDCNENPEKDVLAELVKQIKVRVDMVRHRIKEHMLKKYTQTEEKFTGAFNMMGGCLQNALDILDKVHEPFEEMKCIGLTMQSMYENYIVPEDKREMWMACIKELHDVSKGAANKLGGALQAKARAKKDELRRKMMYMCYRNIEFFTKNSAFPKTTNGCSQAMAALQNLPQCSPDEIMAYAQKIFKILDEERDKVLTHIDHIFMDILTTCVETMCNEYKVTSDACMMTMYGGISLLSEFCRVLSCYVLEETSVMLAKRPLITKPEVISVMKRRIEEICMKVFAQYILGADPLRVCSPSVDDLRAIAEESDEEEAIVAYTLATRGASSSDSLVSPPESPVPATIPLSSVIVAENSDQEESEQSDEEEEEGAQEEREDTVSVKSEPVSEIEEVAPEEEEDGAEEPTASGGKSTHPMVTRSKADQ
The assay is described as follows: pull-down; in vitro pull-down: 1μg of each purified His-tagged protein (His-IE1 or His-Δ451–475 with His-Hes1) mixed in 300μl Buffer A (50mM NaH2PO4, 300mM NaCl, pH 8.0), antibody overnight at 4°C, protein A+G agarose. The settings on record: both partners purified.

For assay [2], the target named is T1, His-IE1 (pET-IE1). Nature of the assay: pull-down; purified His-Sp100A mixed with Ubc5a in the presence of purified His-IE1; Sp100A- or Ubc5a-directed IP, IB; Buffer A, 4°C. The settings on record: both partners purified.

B1: His-Hes1 (pET-Hes1) (natural protein, human, UniProt Q14469 1-280, looked up)
chain: MPADIMEKNSSSPVAATPASVNTTPDKPKTASEHRKSSKPIMEKRRRARINESLSQLKTLILDALKKDSSRHSKLEKADILEMTVKHLRNLQRAQMTAALSTDPSVLGKYRAGFSECMNEVTRFLSTCEGVNTEVRTRLLGHLANCMTQINAMTYPGQPHPALQAPPPPPPGPGGPQHAPFAPPPPLVPIPGGAAPPPGGAPCKLGSQAGEAAKVFGGFQVVPAPDGQFAFLIPNGAFAHSGPVIPVYTSNSGTSVGPNAVSPSSGPSLTADSMWRPWRN
notes: human Hes1 cloned into pET28a; also called purified Hes1; source: E. coli BL21, purified (cOmplete His-Tag Purification Resin); not shown: His6, N-terminal, kept
Consider B1, for which the binding result with His-IE1 (pET-IE1) [1] was “binds”.

B2: His-Sp100A (pET-Sp100A) (natural protein)
chain: not shown
notes: human Sp100A (isoform A of the nuclear autoantigen Sp-100) cloned into pET28a; also called purified Sp100A; source: E. coli BL21, purified (cOmplete His-Tag Purification Resin); not shown: His6, N-terminal, kept
Consider B2, for which the binding result with His-IE1 (pET-IE1) [2] is given as “binds”.
